Laboratory results published in paper PMC8574189, “Surface-induced dissociation of protein complexes on a cyclic ion mobility spectrometer†” (The Analyst, 2021).

What was measured:
[1] = biological target: alcohol dehydrogenase tetramer (from saccharomyces cerevisiae) (saccharomyces cerevisiae) (UniProt P00330); assay: native MS; nanoelectrospray, 200 mM ammonium acetate, or charge-reduced in 160 mM ammonium acetate with 40 mM TEAA or EDDA; 5–10 μM protein complex; cyclic IMS (cIMS) and Synapt G2; TRAP with 14 equivalents of trp
[2] = biological target: streptavidin homotetramer (UniProt P22629); assay: as above
[3] = biological target: αβγHis heterotrimer of His-tagged toyocamycin nitrile hydratase (TNH); assay: as above
[4] = biological target: the molecule itself; assay: as above
[5] = biological target: the molecule itself; assay: native MS
[6] = biological target: T1, C-reactive protein pentamer, P02741; assay: native MS; nanoelectrospray, 200 mM ammonium acetate, or charge-reduced in 160 mM ammonium acetate with 40 mM TEAA or EDDA; 5–10 μM protein complex; cyclic IMS (cIMS) and Synapt G2; TRAP with 14 equivalents of trp; settings: remark: other sources report otherwise
T1 chain: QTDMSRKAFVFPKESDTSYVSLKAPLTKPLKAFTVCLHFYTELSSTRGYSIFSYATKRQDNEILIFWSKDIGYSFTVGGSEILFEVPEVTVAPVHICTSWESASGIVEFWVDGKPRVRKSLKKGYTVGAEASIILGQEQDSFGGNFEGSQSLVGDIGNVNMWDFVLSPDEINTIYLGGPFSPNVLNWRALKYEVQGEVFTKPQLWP

For “alcohol dehydrogenase tetramer (from saccharomyces cerevisiae) (from UniProt P00330 1-348) (enzyme)”, the stoichiometry N [1] was 4.

Molecule “streptavidin homotetramer (from UniProt P22629 25-183) (natural protein)” has a stoichiometry N [2] of 4.

“αβγHis heterotrimer of His-tagged toyocamycin nitrile hydratase (TNH) (complex)” showed a stoichiometry N [3] of 2.

B1: trp RNA binding attenuation protein (TRAP) homo-11mer (natural protein, UniProt Q9X6J6 1-74, looked up)
chain: MYTNSDFVVIKALEDGVNVIGLTRGADTRFHHSEKLDKGEVLIAQFTEHTSAIKVRGKAYIQTRHGVIESEGKK
notes: 91 kDa homo-11mer; it could be B. subtilis; also called holoTRAP; source: obtained from the Foster group (The Ohio State University) and the Gollnick group (State University of NY, Buffalo); copies: 11
With B1 the “stoichiometry N” value [4] was 11.

B2: cholera toxin B homopentamer (natural protein)
chain: TPQNITDLCAEYHNTQIYTLNDKIFSYTESLAGKREMAIITFKNGAIFQVEVPGSQHIDSQKKAIERMKDTLRIAYLTEAKVEKLCVWNNKTPHAIAAISMAN
notes: also called 58 kDa cholera toxin B homopentamer
B2 was tested, and the “stoichiometry N” value [5] was 5.

B3: phosphorylase B dimer from rabbit muscle (enzyme, UniProt P00489 1-843, looked up)
chain: MSRPLSDQEKRKQISVRGLAGVENVTELKKNFNRHLHFTLVKDRNVATPRDYYFALAHTVRDHLVGRWIRTQQHYYEKDPKRIYYLSLEFYMGRTLQNTMVNLALENACDEATYQLGLDMEELEEIEEDAGLGNGGLGRLAACFLDSMATLGLAAYGYGIRYEFGIFNQKICGGWQMEEADDWLRYGNPWEKARPEFTLPVHFYGRVEHTSQGAKWVDTQVVLAMPYDTPVPGYRNNVVNTMRLWSAKAPNDFNLKDFNVGGYIQAVLDRNLAENISRVLYPNDNFFEGKELRLKQEYFVVAATLQDIIRRFKSSKFGCRDPVRTNFDAFPDKVAIQLNDTHPSLAIPELMRVLVDLERLDWDKAWEVTVKTCAYTNHTVLPEALERWPVHLLETLLPRHLQIIYEINQRFLNRVAAAFPGDVDRLRRMSLVEEGAVKRINMAHLCIAGSHAVNGVARIHSEILKKTIFKDFYELEPHKFQNKTNGITPRRWLVLCNPGLAEIIAERIGEEYISDLDQLRKLLSYVDDEAFIRDVAKVKQENKLKFAAYLEREYKVHINPNSLFDVQVKRIHEYKRQLLNCLHVITLYNRIKKEPNKFVVPRTVMIGGKAAPGYHMAKMIIKLITAIGDVVNHDPVVGDRLRVIFLENYRVSLAEKVIPAADLSEQISTAGTEASGTGNMKFMLNGALTIGTMDGANVEMAEEAGEENFFIFGMRVEDVDRLDQRGYNAQEYYDRIPELRQIIEQLSSGFFSPKQPDLFKDIVNMLMHHDRFKVFADYEEYVKCQERVSALYKNPREWTRMVIRNIATSGKFSSDRTIAQYAREIWGVEPSRQRLPAPDEKIP
notes: glycogen phosphorylase b from rabbit muscle; 195 kDa dimer; also called PHB; source: from rabbit muscle, bought: Sigma Aldrich (lyophilized powder)
With B3 the “stoichiometry N” value [4] was 2.

B4: C-reactive protein pentamer, P02741 19-224 (natural protein)
chain: T1 chain
B4 showed a stoichiometry N [6] of 5.
